Experiment [1] deals with human tumor cells. Format: cell-based. To be noted: controls at equimolar or 5 to 10× greater concentrations. On the procedure: The anti-tumor activities of MA were assessed in several in vitro and in vivo systems using published methods.^166 In vitro studies were with a wide variety of human tumor cell lines as well as short-term cultures of cells from biopsy samples obtained from tumors. The assays included effects of MA on colony formation, cell number and viability (trypan blue), and apoptosis. Four measures of microscopy were used. In vivo studies included the effects of MA on tumors induced in immunodeficient mice by xenotransplanted various human neoplastic cells, spontaneous neoplasms of immuno-competent mice and rats, and a few standard tumors in immuno-competent mice. Representative examples are presented.
Cells (5×10^5/ml) were seeded in modified Eagle's medium supplemented with 10% FCS, 10% conditioned medium form PHA stimulated human lymphocytes, 2 mM glutamine in 0.8% V/V methylcellulose with or without various treatments in a final volume of 1.0 ml. Then 0.1 ml aliquots were seeded in 96 well flat bottom microtest plates and incubated at 37° C. in 5% CO2 in air for 7 days. Aggregates containing 50 cells or more were scored as colonies.
5×10^5 cells were seeded in triplicate on 24 gelatin coated wells in conditions as described for Panel A and treated with the indicated test materials. After 3 days the cells were dislodged from their monolayers by gentle pipetting with cell dissociation buffer (Life Technologies), counted after trypan blue staining and aliquots examined for Annexin V staining by indirect IFA […].
Studies of the anti-tumor cell effects of MA were extended to other carcinomas, melanoma, some hematopoietic tumors, and carcinomas of the colon, prostate, breast, lung, brain, pancreas, and kidney-using cell lines from these tumors. […] Many more types of tumor cells were studied utilizing other assays (see below).

Experiment [2] has as its system primary human tumor cells. Description: Short-term cultured primary human tumor cells, growth and apoptosis. To be noted: 200 ng/ml; 3 days culture; 10% serum. In kind it is cell-based. The source says: Because cell lines might be more susceptible to growth inhibition and apoptosis, the effects of MA on short-term cultured human tumor cells were investigated. The cells were obtained from biopsied specimens and immediately cultured (primary cultures). The results were similar to the results with tumor cell lines. […] FIG. 3, Panels A and B are representative results with primary breast and prostate carcinomas respectively. These pro-apoptotic effects of MA on human tumor cells were with 10% serum rather than the lower concentrations sometimes used to make cells more susceptible to apoptosis.
More extensive studies of primary human tumor cells were carried out utilizing confocal microscopy.
With the exception of the kidney carcinoma, which was a biopsy sample direct from the tumor, the samples were from pleural effusions which developed after metastasis to the lung. The breast, prostate, and colon carcinomas were freshly obtained and immediately cultured, whereas the lung and kidney carcinomas went through 22 and 18 passes respectively before they were used in these studies. All cells were examined after 3 days culture in the presence or absence of MA (200 ng/ml) or other treatments. […]

Experiment [3] relates to HIV-1 gene expression. Description: HIV-1 transgenic mice, pups feeding from treated mothers. Format: in vivo. From the text: The transgenic mice contain 5.1 kb of the HIV-1 proviral genome, lacking gag and pol genes and 2.3 kb of vector.^172 The newly developed transgenic rat contains the same HIV-1 sequences and vector.
Twenty-four hours after birth the mothers were either inoculated subcutaneously daily for 10 days or received an implanted osmotic pump delivering 30-150 pmoles of either native or synthetic MA or pMA. Various control polypeptides were used at equimolar or vast molar excess. The newborn pups were then allowed to feed from the foster mother breast milk over the entire period. Since the animals are at risk from needle inoculation, breastfeeding was the chosen route for MA administration.
In these experiments total RNA was extracted from samples of skin RNA206 10 days after birth of MA treated and untreated mice. One ug of RNA was reverse transcribed into cDNA using random hexamer primer and […] reverse transcriptase (Life Technologies, Inc.) in a final vol. Of 30 ul. Three ul of each reaction was used for PCR amplification of the HIV-1 gene sequences (env, tat, nef, and rev) as described […], and glyceraldehyde 3-phosphate dehydrogenase (GAPDH) was amplified from each sample for normalization. After 25 cycles, 10% of the products were resolved by electrophoresis on 2% agarose gels, transferred to nitrocellulose membranes by Southern blotting, and hybridized to fluorescein isthiocyanate-labeled oligonucleotide probes complementary to internal sequences of the amplicons […]. Bound probes were detected by chemiluminescence (Amersham) and relative mRNA levels determined by densitrometry after normalization with GAPDH mRNA levels.

Experiment [4] can be described thus: Lethally irradiated rats and mice. Conditions: higher dose, treated at time of radiation, 3×/week for 4 weeks; over 100 days. On the procedure:
In order to determine in vivo relevance of the prohematopoietic effects of MA treated rats and mice under several conditions of bone marrow suppression. First, the effects of native MA and pMA and of the synthetic 15-mer MAS1 were treated for their capacity to reduce or prevent the effects of lethal doses of gamma irradiation. […] MA, pMA, MAS1, and various control polypeptides were given 48 and 24 hrs before, during, or 24 hrs after radiation. The animals treated prior to radiation received either 100 ng vs. 1 ug (rats) or 50 ng vs. 500 ng (mice) as 2 subcutaneous injections.
It is not yet possible to determine the precise molar dose of pMA because of less certainty on its full-length sequence.
To ascertain that the MA effect did promote hematopoiesis in these animals we examined the bone marrow for cellularity and colony formation and determined peripheral blood counts.

Experiment [5] can be described thus: Lethal dose taxol in Sprague-Dawley rats. In kind it is in vivo. Here is the method:
Sprague-Dawley rats were given taxol in large lethal doses, 4.5 mg in one I.P. inoculation. […] Bone marrow suppression can also be a side effect of the clinical use of taxol.^179 As in the radiation experiments, either MA, pMA, MAS1, or various polypeptide controls were given subcutaneously only in two doses 24 and 48 hrs before taxol treatment or were given 3×/week for 4 weeks. […]

Experiment [6] in a line: Summary of active and inactive peptides / overall biological activities.
The subject of experiment [7] is human carcinoma and sarcoma cells (PC3, KS Y-1). Description: Xenotransplanted human tumors in immunodeficient mice. To be noted: controls at equivalent and higher molar concentrations. In kind it is in vivo. On the procedure:
In the first set of experiments, MA was tested against tumors formed by xenotransplantation of various human carcinoma and sarcoma cells in immunodeficient mice. […] […] Three different synthetic forms of MA were used: full length (MAS3) and the previously described MAS1 and MAS2 (Panel C).

Experiment [8] has as its system HIV-1. Conditions: controls at similar, equimolar or higher concentrations. On the procedure: Virus (MOI of 0.001) was added to 10^6 cells in RPMI-1640 with 10% FCS. One hour later the various polypeptides were added once. The cells cultured for 3 days with 5 ug PHA and 20 i.m. of II-2/ml at 37°, after which virus was estimated by determining p24 (HIV-1) or p27 (SIV) (Organon-Teknika).
The effect of native and synthetic MA on HIV-1 infection in vitro was evaluated using PHA and II-2 stimulated primary peripheral blood cells (PBMC), CD4+ T-cells enriched fractions from PBMC, and CD14+ macrophage enriched fractions. Infection was with HIV-1 IIIB (PBMC and CD4+ T-cells), HIV-1 Ba-L (macrophages), and two primary HIV-1 isolates not passaged in any cell line (PBMC).

For experiment [9], the system named is hematopoietic progenitors (CFU-GEMM, BFU-e, CFU-GM, T-CFC). Description: Hematopoietic colony formation assays. In kind it is cell-based, human. From the text:
Hematopoietic colony formation assays with bone marrow or cord blood of normal human volunteers and bone marrow of monkeys, rats, and mice were utilized. The assays are conventional measurements of the number of progenitors for erythrocytes, granulocytes, macrophages, platelets, and T-cells. The culture conditions included growth factors that would give near optimum growth for the particular lineage. These factors included II-3, PHA-lymphocyte conditioned medium, erythropoietin (EPO), II-6, and GM-CSF. The number of colonies developing in methylcellulose reflects the number of progenitor cells, and the percent increase is a measure of the effect of different polypeptides to increase colony number above the maximum obtained with the indicated known growth factors.
The latter is a less conventional assay, and details on the methods involved are described elsewhere.^178

The target of experiment [10] is T1, hCG receptor (Homo sapiens, UniProt P22888).
T1 construct: host or cells: unspecified cells
Conditions: cited from earlier work.

The test system of experiment [11] is HIV. Conditions: higher doses increased viral production; cited from earlier work.

Read-outs that look alike come from different tables or passages of the source. A value given as a limit tells only on which side of the number the result lay.

T1 sequence (P22888 27-699): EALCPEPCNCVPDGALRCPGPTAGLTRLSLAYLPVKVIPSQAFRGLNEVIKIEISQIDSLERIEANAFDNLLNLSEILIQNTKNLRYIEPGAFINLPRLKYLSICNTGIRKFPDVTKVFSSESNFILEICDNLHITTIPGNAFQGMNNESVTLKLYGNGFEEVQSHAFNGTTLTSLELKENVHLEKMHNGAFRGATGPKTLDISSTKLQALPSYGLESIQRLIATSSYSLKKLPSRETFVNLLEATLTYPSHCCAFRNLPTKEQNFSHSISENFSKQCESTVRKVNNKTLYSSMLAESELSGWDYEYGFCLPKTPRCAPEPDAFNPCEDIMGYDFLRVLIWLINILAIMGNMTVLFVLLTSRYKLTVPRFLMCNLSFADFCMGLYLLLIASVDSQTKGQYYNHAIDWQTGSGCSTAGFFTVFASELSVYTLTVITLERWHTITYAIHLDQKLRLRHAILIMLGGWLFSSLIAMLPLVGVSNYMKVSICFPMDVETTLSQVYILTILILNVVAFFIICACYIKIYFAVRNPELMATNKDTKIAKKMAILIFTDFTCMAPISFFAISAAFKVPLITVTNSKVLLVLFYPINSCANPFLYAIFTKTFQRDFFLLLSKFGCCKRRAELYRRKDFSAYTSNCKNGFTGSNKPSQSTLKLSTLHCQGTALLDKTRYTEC

Consider “pMA: natural peptide 38 amino acids in length, β-hCG 55-92 (SEQ ID NO: 3) (VVCNYRDVRFESIRLPGCPRGVNPVVSYAVALSCQCAL; listed as Homo sapiens)”, for which the “inhibition of growth / induction of apoptosis of neoplastic cells” value in experiment [1] was “induce apoptotic death”. The “growth inhibition and apoptosis of primary human tumor cells” value in experiment [2] is “effective”. Further, the “weight over the ten day period” value in experiment [3] (30-150 pmoles) is “quadrupled their weight”. In addition, the “survival / development of pups (qualitative)” value in [3] (mothers treated, pups breast fed) is given as “survived”. The “HIV-1 viral expression in tissues” value in [3] (mouse, in vivo) is recorded as “marked inhibition of viral expression”. Moreover, the survival in experiment [4] was 100%. Further, the “survival of pretreated animals” value in [5] (low dose, two doses 24 and 48 hrs before taxol) is listed as “Sixty-percent”. The “survival maintained to day 80” value is reported as about 80% in experiment [5] (therapy maintained 28 days, high dose (1000 ng)) and “about 60%” in experiment [5] (therapy maintained 28 days, low dose (100 ng)). Moreover, the “survival on day 5” value in experiment [5] (therapy maintained 28 days, low or high dose) was found to be 100%.

B1: β-hCG: β-chain of human chorionic gonadotropin, AA 1-145 (SEQ ID NO: 1) (protein, listed as Homo sapiens)
chain: SKEPLRPRCRPINATLAVEKEGCPVCITVNTTICAGYCPTMTRVLQGVLPALPQVVCNYRDVRFESIRLPGCPRGVNPVVSYAVALSCQCALCRRSTTDCGGPKDHPLTCDDPRFQDSSSSKAPPPSLPSPSRLPGPSDTPILPQ
Take B1: in [6], the “biological activities in vitro or in vivo in the experimental systems described” value is “no activity”. The “inhibition of growth / induction of apoptosis of neoplastic cells” value in experiment [1] is reported as “no inhibition of growth or induction of apoptosis”. Also, the “effect on xenotransplanted tumor (qualitative)” value in [7] is “no effect”. Also, the “inhibition of HIV replication (qualitative)” value in experiment [8] is “No inhibition”. Further, the “inhibition of HIV replication (qualitative)” value in experiment [8] (listed as rβ-hCG) is on record as “no effect”. In addition, in experiment [3] (mouse, in vivo), the “HIV-1 viral expression in tissues” value was “high expression” and the “mice dead by day 10” value is listed as 10 of 10. Moreover, the “hematopoietic effects in vivo and in vitro” value in [9] was “None”. For the same molecule, the “effect on colony number (qualitative)” value in [9] (equimolar or higher concentrations) is given as “no significant effect above background”. In addition, the “effect on survival (qualitative)” value in experiment [5] (even at high doses) is “no effect”. Besides, in [10], the “binding to the hCG receptor” value is on record as “neither β-hCG or any of its degradation products significantly bind”. For the same molecule, in experiment [11], the “doses reducing HIV production in monocytes” value was at most 10 µg/mL.

Source of the values: US9175077B2, “Nucleic acids encoding biologically active polypeptides derived from a novel early stage pregnancy factor designated maternin (MA)” (NOBEL BIOSCIENCES LLC, priority 1999, dated 2015).
